According to PMC2973826, “Translation Elongation Factor 1A Facilitates the Assembly of the Tombusvirus Replicase and Stimulates Minus-Strand Synthesis” (PLoS Pathogens, 2010):

Target: T1, MBP-tagged TCV p88C (lacking the p28-overlapping domain from the N-terminus) (Turnip crinkle virus, UniProt P17460 252-775)
T1 sequence: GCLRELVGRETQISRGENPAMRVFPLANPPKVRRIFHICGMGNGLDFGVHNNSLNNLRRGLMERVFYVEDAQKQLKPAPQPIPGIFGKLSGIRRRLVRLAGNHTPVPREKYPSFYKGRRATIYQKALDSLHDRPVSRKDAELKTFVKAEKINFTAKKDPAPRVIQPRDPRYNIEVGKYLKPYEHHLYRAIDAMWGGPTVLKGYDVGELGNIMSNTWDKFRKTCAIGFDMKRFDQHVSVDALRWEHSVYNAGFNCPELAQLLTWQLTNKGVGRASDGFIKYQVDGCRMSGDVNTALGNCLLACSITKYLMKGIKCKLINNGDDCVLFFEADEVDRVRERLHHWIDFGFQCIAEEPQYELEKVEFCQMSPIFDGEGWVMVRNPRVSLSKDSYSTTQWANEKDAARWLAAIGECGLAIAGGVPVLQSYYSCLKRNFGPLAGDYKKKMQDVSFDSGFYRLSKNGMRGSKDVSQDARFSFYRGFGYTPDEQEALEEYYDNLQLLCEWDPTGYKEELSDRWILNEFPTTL
Experiment: cell-based or functional assay

B1: eukaryotic translation elongation factor 1A (eEF1A), wild type (natural protein, S. cerevisiae, UniProt P02994 1-458, looked up)
chain: MGKEKSHINVVVIGHVDSGKSTTTGHLIYKCGGIDKRTIEKFEKEAAELGKGSFKYAWVLDKLKAERERGITIDIALWKFETPKYQVTVIDAPGHRDFIKNMITGTSQADCAILIIAGGVGEFEAGISKDGQTREHALLAFTLGVRQLIVAVNKMDSVKWDESRFQEIVKETSNFIKKVGYNPKTVPFVPISGWNGDNMIEATTNAPWYKGWEKETKAGVVKGKTLLEAIDAIEQPSRPTDKPLRLPLQDVYKIGGIGTVPVGRVETGVIKPGMVVTFAPAGVTTEVKSVEMHHEQLEQGVPGDNVGFNVKNVSVKEIRRGNVCGDAKNDPPKGCASFNATVIVLNHPGQISAGYSPVLDCHTAHIACRFDELLEKNDRRSGKKLEDHPKFLKSGDAALVKFVPSKPMCVEAFSEYPPLGRFAVRDMRQTVAVGVIKSVDKTEKAAKVTKAAQKAAKK
- in vitro (−)RNA synthesis by the TCV RdRp on a TBSV (+)RNA template after pre-incubation of purified wt eEF1A with the TCV RdRp: ~5 fold
